Source: US20210338833A1 (MIT, published 2021)

What was measured:
[1] = target: T1, FMC63 mimotope K-A11 RICPWNCKELYWLPDE; test: flow cytometry of yeast clones titrated with biotinylated FMC63 scFv and streptavidin-PE, MFI (geometric mean); no unit on the concentration axis
T1 peptide: RICPWNCKELYWLPDE

[2] = target: T2, FMC63 mimotope K-A3 RICPWNCKELPTPYMMFDM; test: as above
T2 peptide: RICPWNCKELPTPYMMFDM

[3] = target: T3, FMC63 mimotope K-A10 AKRRERDYVGRICPWNCKELHPDTRHRIPV; test: as above
T3 peptide: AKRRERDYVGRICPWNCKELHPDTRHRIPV

[4] = target: T4, FMC63 mimotope K-C2 RICPWNCKELPSPPRIFGNR; test: as above
T4 peptide: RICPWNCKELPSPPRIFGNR

[5] = target: T5, FMC63 mimotope K-F5 QFQRICPWNCKELYWLPDQ; test: as above
T5 peptide: QFQRICPWNCKELYWLPDQ

[6] = target: T6, FMC63 mimotope K-A5 PLSRICPWNCKELYWLPQR; test: as above
T6 peptide: PLSRICPWNCKELYWLPQR

[7] = target: T7, FMC63 mimotope K-D11 AGTRICPWNCKELYWLPDE; test: as above
T7 peptide: AGTRICPWNCKELYWLPDE

[8] = target: T8, FMC63 mimotope K-B5 PPPRICPWNCKELPLDWPW; test: as above
T8 peptide: PPPRICPWNCKELPLDWPW

[9] = target: T9, FMC63 mimotope K-A1 PRKHSGRICPWNCKELDNPPFIFGNR (not fully specified); test: as above
T9 peptide: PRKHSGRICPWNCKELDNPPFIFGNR

[10] = target: T10, FMC63 Mimotope (H1) RVCPWSCMPI; test: flow cytometry of yeast clones titrated with biotinylated FMC63 scFv monomer, MFI (geometric mean); axis without unit, nM by the legend paragraph 211
T10 construct: Not the 1D3 mimotope that is also called H1
T10 peptide: RVCPWSCMPI

[11] = target: T11, FMC63 Mimotope (F12) RICPWNCKEL; test: as above
T11 construct: also called F12 mimotope
T11 peptide: RICPWNCKEL

[12] = target: T12, FMC63 Mimotope (G11) RLCPWNCREL; test: as above
T12 peptide: RLCPWNCREL

[13] = target: T13, FMC63 Mimotope (H8) RICPWACVEL; test: as above
T13 peptide: RICPWACVEL

[14] = target: T14, FMC63 Mimotope (A12) RRCPWSCKKQ; test: as above
T14 peptide: RRCPWSCKKQ

[15] = target: T15, FMC63 Mimotope (C7) RLCPWACQEQ; test: as above
T15 peptide: RLCPWACQEQ

[16] = target: T16, FMC63 Mimotope (F8) RLCPWDCREL; test: as above
T16 peptide: RLCPWDCREL

[17] = target: T17, FMC63 Mimotope (C5) RMCPWSCYEL; test: as above
T17 peptide: RMCPWSCYEL

[18] = target: T18, FMC63 Mimotope (H11) RICPWSCREL; test: as above
T18 peptide: RICPWSCREL

[19] = target: T19, FMC63 Mimotope (E6) RLCPWSCVPI; test: as above
T19 peptide: RLCPWSCVPI

[20] = target: T20, FMC63 Mimotope (G9) RLCPWSCREL; test: as above
T20 construct: Parent of the alanine scan
T20 peptide: RLCPWSCREL

binding result [1]: binds | binding result [2]: binds | binding result [3]: binds | binding result [4]: binds | binding result [5]: binds | binding result [6]: binds | binding result [7]: binds | binding result [8]: binds | binding result [9]: binds | binding result [10]: binds | binding result [11]: binds | binding result [12]: binds | binding result [13]: binds | binding result [14]: binds | binding result [15]: binds | binding result [16]: binds | binding result [17]: binds | binding result [18]: binds | binding result [19]: binds | binding result [20]: binds
B1: FMC63 scFv (scFv)
scFv: DIQMTQTTSSLSASLGDRVTISCRASQDISKYLNWYQQKPDGTVKLLIYHTSRLHSGVPSRFSGSGSGTDYSLTISNLEQEDIATYFCQQGNTLPYTFGGGTKLEITGGGGSGGGGSGGGGSEVKLQESGPGLVAPSQSLSVTCTVSGVSLPDYGVSWIRQPPRKGLEWLGVIWGSETTYYNSALKSRLTIIKDNSKSQVFLKMNSLQTDDTAIYYCAKHYYYGGSYAMDYWGQGTSVTVSS
modifications: biotinylated
notes: Whole scFv entry (VL-(G4S)3-VH); also called FMC63-scFv monomer; biotinylated FMC63 scFv
